Results as given in a protein production outcome set (Wang et al. 2014).

Assay: label from the status in PepcDB records
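Also: failed if final PepcDB status was selected cloned or expressed and not failed if soluble or beyond.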

MAEKKWFDKVLSKWQYEPIQVFMRHLQSAEMDLSAIAVAYYLILTAFPLIVIAANIFPYLNIDIADLLRLMKQNLPKDIFRPASAIVENIFSKPSGSVLGVATLTGLWTMSRSLTSLQKAINKAYGASQHRDFFIGHLVGLLTSLIILFLLAFALIFSIFSKAAIQVLDKHYHLSDNITTIFLLLIQPITVLIIFVGLMLLYFLLPNVKIKKIRYILPGTLFTSFVMTFLSNLVGNYVVYNVERMVDIKMFGSVMIFIIMLWFIFLARILILGAIFNATYQEMSLGKLEGRSGDMIAILKKTLGNDSDLSPSQSIEDSHTD
protein production: failed

MAKKILILGAAGEIARMLTDRLLAESDAELVLYGRNVSQRLALEENSRIKLVDGTFGESEKLEAALAGVDVVYLNSMSSPADTASVVQALEKAGVKRLLGATIAGVEDEVPYELATWTKNSLPASYIKGEYDSAKIVRDSNLDYTLLRLTWLFNDESDREYELVPSGVEFADAEVSRQAITQAILDILNGEESEYVRKSFGLGKPNTHYGKPSFY
protein production: failed

MDVLIHLFVGLHIIGIAALLGGFLTQMKAMGRGTARFVPGMLHGALTMLVTGVALVGLNQADDHSVNTIKIGVKLALLIVILGLVYVKRDEEQVDKGLFGLVGLLTTANIFIAVLWT
protein production: failed

MALQLATLCFVSFSALFFVVDPFSAVPFFLALTRNDDPRRRREIALRASVTAFAVLAAFALTGEWIFRLLGIGLPAFKVAGGVVLLLLALDMVRTQPSRTRITQGEVDASADKEDVAIVPLAMPLLAGPGSIATAIVLMVRARGEDWWHPLPVLLAIALTCLASYLILAGAARTEKVLGRTGLAILERVAGLLLVAIAVQFMMDGLAEGLPRAFPLR
protein production: failed

MKHAFDRFVQYLQKNYFSYWIVLGIDTFIALICTWVSFIGIHYITETSKEITSLFHILAISVISSILGSFLFHTYRNTIRFSQLKELWRLAGSALIKAVCIAMAIWLFLPQTGLHNSQKIVFVLFDGMLTFIAMVGFRIQLILVYELLLNMLNKKNMHILIYGIDDKSVALKVRLMNSSHYKVVGFCIYGTGDSIRRVADLPVYSFKDEECFNKLIHKKCIGGILFARYENTREEEDRLLQYCKRSGLKTLIAPSISEADENGSFHQWVRPIKIEDLLGRSEIHINMEEVMTEFCGKVVLVTGAAGSIGSELCRQLAQMNIKKLIMFDSAESPLHNVRLEFEKNYPDLDFVPVIGDVRVKERLRMVFETYQPQIIFHAAAYKHVPLMEENPCEAVLVNVVGSRQVADMAVEYGAEKMIMVSTDKAVNPTNVMGCSKRLAEIYVQSLGCAIREGKVKGHTKFITTRFGNVLGSNGSVIPRFKEQIENGGPVTVTHPDIIRFFMTIPEACRLVMEAATMGEGNEIFVFEMGKAVKIVDLATRMIELAGYRPGEDIEIEFTGLRPGEKLYEEVLSDKENTIPTENKKIMIAKVRHYEYTDILDTYTEFEKLSRSVQIMDTVKLMKRVVPEFKSKNSPRFEVLDR
protein production: failed

GQLSIKLWFDKVGHQLIVTILGAKDLPSREDGRPRNPYVKIYFLPDRSDKNKRRTKTVKKTLEPKWNQTFIYSPVHRREFRERMLEITLWDQARVREEESEFLGEILIELETALLDDEPHWYKLQTHD
protein production: not failed

AAIRHITTGTYIARIREEYQQTEVKPELQPMKEALARMTDRAEALIAFVTEQKDQELLDFQARRLVEMTAHAVFGHLLMLAANDDDSFRQSAEVYLRYGQAEQEKIDSYVRAFRPEELTFYSRCSRPE
protein production: not failed

MPARPAYSRLQIALHWLVAILIAAAWLTHEGMGRALETRIETGASGFEGNTPHVWLGIAVFVAVLIRIVVRRVQGAPGPLPGATPLMEKAATWGHRLLYLLMVLTPALGALAWNAHSEAVGELHETVGSALMLVALGHALVALWHQYVKKDGSLTRITRPQG
protein production: failed

MNNTDCLLGRRKEINETAYANVLKKELVVYMKRKLMIFFIASVVTLLICSVAVLASGEDVHILINNNGIKFSIPPYVKDEEVFLPMREIFELYGFEVNWNGTERSAEAAKDGKIVKVKVGSNIVKLYGEDYNSKDDVFIFRDRIFISTDVIEAGLNIKVKWDKNKRTIYLNEYTNESITIVGNDNSVILGSNILVNISPRYDIDTVNKIIGENDEMLVEKNYTGAIRGYKELLKHISAKENPEEYIHVLINLGNAYVELASIVNREQNALEAILFYEEALKVDSIDKYPHKKALANRGMGSAYFILSTVRDVEKNTAKALEMFNEALNIFVKDGDQYNCGYLHYLKGRTYYWMAASTNTRDNIIKSLDSLEEALTTFNTENYKDEYIIARSCHGLVLTQFFNFSGEVEHLQRAFDAFNEVLDNITIEEKPILYASTYMQLASYYMYLANKDGDVESYYKCISCMQESLKVYTLDSDSYNYAVAYANIGKAYLLMSYLSQTNVNIDRALSAYEEALKVFKISQFPFNYASVQIDLGEAYTVKAGITGSEEDYNNAQNAFNNALKIYTLKNYPYQYAKTYSEFGKMYIALAYIKDKEENNKKAIECFNEALKVYSFEKYPVLYGYNQELIALSNIELSKIRDPKKHLNKSVEVCNNALKVFRKENIPYLYGVVNIYLGNSYTFLASIENTKENCIQAEKAYMNALEIFTKDASLTYYLEAMTGLAENYVIKSQVENRKENLEKAIAKCNDIIELLDRHRSSPYYGKAQYILLLSYLGLSDFENKEVNLNKALIANREAVSVFEEGNLVFDKSIALAAGANIYLKYSEVNNTVKNLTEAKRTVESALTYFKKENYPYQYAILMNSMGTIYQKLSEKENRIDNLKKSIEAYKEANEIFSIEEYGLYFAKTKHDMGDVYMKLAGSEDRKANIQKALECFSEAIRIYTNEDYPLIHEEIIKKMENIKK
protein production: failed

MPLCLRNAQQDDTQRLSQIARQTFALACPPDTPATEIEAFIQENLLPEHFSALLEAPGKQLRVLLDDNRVIGYSLVNLHPQDLGVAGADGIAELTRCYLDAAHHGSGAAQFLLAQTLAQQPGPLRLTVNEHNARAIRFYQRNGFVRVGETLFPCGADLHRDWVMLRR
protein production: failed

MFTPGNVLSWATFFPVIGSALIVVLLAAKFFLRLDKKLVDDGSRWIALVTSALSFAAAIAAWRMYDPSATGVQLVQHFTWIRAFNIEFYFGVDGISISMVLLSGLISFIATIASMPWWSGKKDAEMAGMVDDGHEDPHHPKHFSVRMVPGYMAMLLLLQTGMMGTFVALDMFLFYVFWEIMLLPMYFLIGIWGGPRKEYAAIKFFLYTLAGSVLMLLAIIGIYYNSAPAQLADGSWSSGHTFNLIELAKQGAAGQFRNAAPILGFSFAKIVFIGLFIGFAIKIPMFPFHTWLPDAHVEAPTPISVILAGVLLKMGIYGILRFNYGILPDATAWAAGAIAVFGVINIIYAAFVCLAQKDLKKLIAYSSVSHMGFSLLGMAAMTPQGISGAVLNLFTHGIISPMLFLIVGVIYDRAHHREIEKFGGLAQELPEYSAIMGLAFFASLGLPGLAGFISEFTVFSGAFPVFTTYTIISATSVVLTAAYYLWAIHRMFLGKLNPVYKGYPDLNWRERMSLYPLAVICIYLGFYPQAILGVINPALHALIQNIKPL
protein production: failed

YDDEDYQAEQDRREEQRRAAIAQTGVEVIPVHGVLVSRGSHLNACETMTSYEGLRAALNKAITDPMVEHIVLDIDSPGGSAVGAFELAADIRAATKIKPITGLVNFMAYSGGYLIASACTEVVVSLTSGVGSIGVVASHMDRSKMIEGMGVKVTTVFAGAHKNDLSPNEPITEQSLQVLNEVVQESYQLFTTHVAEYRGRDVADIIATEAACYRGSSAIAIGLADRLESPQ
protein production: failed

MSLSLSHFRITRFQFARDRVIGDSQVRADDVNVAALELVSESGEVGLGFIQTLFNPLPDQQEIESVFEHEVWPSLKGNRAIALVHRVNRPRGGNQRAYSLPFHEAVQVALWDLAAKEAGLPLHVLLGSRRNRVKAYASGLDFHLDDDAFVSLFSHAASIGYSAFKIKVGHRDFDRDLRRLELLKTCVPAGSKVMIDPNEAWTSKEALTKLVAIREAGHDLLWVEDPILRHDHDGLRTLRHAVTWTQINSGEYLDLQGKRLLLEAHAADILNVHGQVTDVMRIGWLAAELGIPISIGNTFLEAGVHMAVALPEVEWLEYSFQNFDHLVEQPIEIRDGYAYAPDRPGHGLVLSEKARGEWSRPRRLARSELGAAPENPRLPAKEGHHHHHH
protein production: not failed

MQEQWGYVAISFIIGIAIAFSSSLLLIVFCLFLNVFFCLYRTSRKTFIFCIVACFSSVIYTSYVQTWNKPLGESYGVTRGVIQNTPLVNGDRLSFQFEDQNKNIVQLSYRIKSALEKKKMQQLYAGISCVFEGERKEPETARNFHGFNYRDYLYKQHIHFTFEATYISECYKTSLSLTQWILLLRQQAISKVTEMFPEQSGAFMNALLFGDRQQMTFEVEEQYQQFGLVHLLAISGSHIVLLMVIVYFILLRSGATREVATICLIVCIPLYMVLAGASPSVIRASITGVLMLIAFMCSIRLSSLDALSVTAICMLIYDPYLVFNIGFQFSFVGSFALLLSAPLLLGSSNGVIRNSIYISIISQLVSTPILLYHFGYFSPYSILLNLLYVPFLSIIVLPCSIIILLCMPIVPFLAKGFADVLSIGLSMSNDFLSYCESLPFTQLIFGETPLNLVAVYCASIVSILMVWERRAPKKIVCIVASVFLFISTCHYIYPYFRGSGSVTFIDVGQGDAILIRLPYDKGIYLIDTGGTLRVNKEEWQQKKHEFSVGNDVLIPFLQKEGIKTIDKLIVTHGDADHIGAAQELLSYIPVKEVVFGRKGKDAVLEKVVKKQALEKEMKITEVGEGASWSVNEAEFFVLAPKGKEKSENNASIVIWAKFGGLKWLFTGDLEEEGEKILVEAYPDLQVDVLKVAHHGSNTSSIEPFLNVMQPRVAIISVGKQNRYGHPHKEVIERFEKMGSAIWRTDKQGAISYVFKGENGTFKSKITYDKTHNR
protein production: failed

MKEGIELNTKKRIIGLDFARALAMFGMLLVNFMVITGAEGNGPPFLITLMSLFEGRASALFVILAGIGISLMTRSSVARNEKIKISNSRKIIWKRALFLFILGLLLYVMEWTGDILHYYGVYLFVAALLITVRKKALLFLSIIILLLAQSLQLTFNAFEGWGGPTPFINYVDFWTVNGFLRNLFFNGYHPFSHRFSFFLIGMIIGRLDLHNKKIRDRLLLLGITFTILIELLSKGLTYYFIPHIGKAAATFLFNTGPVLPNVLYILSATGSAIAILILCLYITEKYENNWFVTSIIQTGQLTLTHYVSHVFIGIGTLILFNRMEHQTLLFVLLFATVFFIFSILFSVLWRKKFSRGPIEWIMRKLAS
protein production: not failed

VKDVRKIQFMPMERHNTELLSLVDNLPDPVFAIDLKGAVDMANMSALSLLGLHKQEVIGTQIGALLPSVRFSRWSEGVNARTRENLVIDGLDYILELMPVY
protein production: failed

MSMESKSKRRSPPSSTLEEEVPGKTIHPEDPKITSKNFENPTKETSIQSPIKNSIKPSWNPEPKITRTSIWDIESAGGDSIQNDCQSECNVEDQGHEQEVTLETRIFSGTSDRIEPHRHYGVYLLRNRFDAIQLLTRNTSSSADDYGERRVISEYREMRCEFRVWSPFQSKLAAGIMGGVSDLHLQIGSKVLYLGAGFGRSVSHISDIVGDSGMVYAVEQIPWAGRQLTIMANRRSNIVPIVEDATMPYKYRYEVPACIDIIFADLPPSVLIRALMLNARHFLNPGGHFVAYLHSPTSQGVVFNKDSFAAERRLLKEKQLEPKEMVLLEPFKAGYAFVVGVYIRKDVSL
protein production: failed

MLKKYIPLVARSFLAVIFIYAGVNKVFNFAQTSESMAKAGLPIVGVLLIFTIAFQILGGLSIILGYKAEIGAILLIIFLIPATIVFHNPFADPSQFNNFFKNLSIIGGLLLILAYGSGTLSLEASDRSSYVSQPEE
protein production: failed

MANKEKLPWDLEEEILSRVPPTSLDRFKTVCKRWNALFNDKTFINNHKMTFQFVLSTRSKIYSVSVNPKVEVRELTLNNPGLKAQRHKNLFATSGLLLCDVGNGAVVWNPWLKQSRCIKLEVNEPSLDFLGIGYDNNKRVEEIVYKTLSVYMKDLGSQYTWKIHDFASDTWIDQEIEKTKYSRRITEGSVTIRLTNLSVVSLNGKFFKFCDLPSGKNRRRDALALRVFREDRFSLLRQCHVTKKIKIWVTKNKIDNRYGGDVKWMSFMEVSIPTMPDLEHPKFNSQPSYFIDDKRLVICSCDETGRAWIYVVGGNKLVSKTQLDSVVDPWPLHCTYFPSLVLVPGGQREEAELQEAKNLHVTTELYVPGKTKSSIKLHYG
protein production: failed
